The values below come from paper doi:10.1101/677500.

In test [1] the target is GST-EhPKDL (Entamoeba histolytica Protein kinase D like kinase, recombinant) (Entamoeba histolytica). Put plainly: SEC. For orientation: SEC sorts molecules by how far they enter the pores of the column.
Test [2] addresses EhPKDL-FITC (Entamoeba histolytica). Briefly: other fluorescence titration.

With “GST-EhPKDL (Entamoeba histolytica Protein kinase D like kinase, recombinant) (enzyme)”, the stoichiometry N (usually the number of molecules, sites or subunits per partner or assembly) in test [1] stood at 2.
On to actin-TRITC (natural protein), for which, in test [2], the stoichiometry N is 1 molar ratio.
